Consider eight molecules from PMC6504924 (2019).

By Ki is commonly meant the dissociation constant of the complex between target and ligand, obtained from inhibition or displacement. A lower Ki goes with a stronger hold on the target. Usually IC50 stands for the concentration at which inhibition is half-maximal. Low values mean greater potency, high ones weaker potency. One may read the Kd as the constant that tells how readily two partners part at equilibrium. Lower therefore signals tighter binding. As a reminder, the EC50 is the concentration needed to bring the measured effect to its halfway point.

The target in assay [1] is T1, NanoLuc:VEGFR2 fusion on cells (UniProt P35968 20-1356). The assay is described as follows: competition with CBT-labeled VEGF165a.
The target of assay [2] is T1, NanoLuc:VEGFR2 fusion on cells. As to the kind of experiment: competition with CBT-labeled VEGF165a. This is another data set of the same source.
The target is the same in assay [3].
The target of assay [4] is T2, NanoLuc:EGFR fusion on cells (UniProt P00533 25-1210).
In assay [5] the target is T2, NanoLuc:EGFR fusion on cells. This is another data set of the same source.
The target is the same in assay [6]. As to the kind of experiment: competition with CBT-labeled EGF.
Assay [7] has the same target. As to the kind of experiment: competition with CBT-labeled EGF. This is another data set of the same source.
Assay [8] deals with T3, NanoLuc:PDGFRβ fusion on cells (UniProt P09619 33-1106).
In assay [9] the target is T3, NanoLuc:PDGFRβ fusion on cells. This is another data set of the same source.
The target is the same in assay [10]. The assay is described as follows: competition with CBT-labeled PDGF-BB.
Assay [11] has the same target. As to the kind of experiment: competition with CBT-labeled PDGF-BB. The source holds these as a separate data set.

T1 sequence (P35968 20-1356): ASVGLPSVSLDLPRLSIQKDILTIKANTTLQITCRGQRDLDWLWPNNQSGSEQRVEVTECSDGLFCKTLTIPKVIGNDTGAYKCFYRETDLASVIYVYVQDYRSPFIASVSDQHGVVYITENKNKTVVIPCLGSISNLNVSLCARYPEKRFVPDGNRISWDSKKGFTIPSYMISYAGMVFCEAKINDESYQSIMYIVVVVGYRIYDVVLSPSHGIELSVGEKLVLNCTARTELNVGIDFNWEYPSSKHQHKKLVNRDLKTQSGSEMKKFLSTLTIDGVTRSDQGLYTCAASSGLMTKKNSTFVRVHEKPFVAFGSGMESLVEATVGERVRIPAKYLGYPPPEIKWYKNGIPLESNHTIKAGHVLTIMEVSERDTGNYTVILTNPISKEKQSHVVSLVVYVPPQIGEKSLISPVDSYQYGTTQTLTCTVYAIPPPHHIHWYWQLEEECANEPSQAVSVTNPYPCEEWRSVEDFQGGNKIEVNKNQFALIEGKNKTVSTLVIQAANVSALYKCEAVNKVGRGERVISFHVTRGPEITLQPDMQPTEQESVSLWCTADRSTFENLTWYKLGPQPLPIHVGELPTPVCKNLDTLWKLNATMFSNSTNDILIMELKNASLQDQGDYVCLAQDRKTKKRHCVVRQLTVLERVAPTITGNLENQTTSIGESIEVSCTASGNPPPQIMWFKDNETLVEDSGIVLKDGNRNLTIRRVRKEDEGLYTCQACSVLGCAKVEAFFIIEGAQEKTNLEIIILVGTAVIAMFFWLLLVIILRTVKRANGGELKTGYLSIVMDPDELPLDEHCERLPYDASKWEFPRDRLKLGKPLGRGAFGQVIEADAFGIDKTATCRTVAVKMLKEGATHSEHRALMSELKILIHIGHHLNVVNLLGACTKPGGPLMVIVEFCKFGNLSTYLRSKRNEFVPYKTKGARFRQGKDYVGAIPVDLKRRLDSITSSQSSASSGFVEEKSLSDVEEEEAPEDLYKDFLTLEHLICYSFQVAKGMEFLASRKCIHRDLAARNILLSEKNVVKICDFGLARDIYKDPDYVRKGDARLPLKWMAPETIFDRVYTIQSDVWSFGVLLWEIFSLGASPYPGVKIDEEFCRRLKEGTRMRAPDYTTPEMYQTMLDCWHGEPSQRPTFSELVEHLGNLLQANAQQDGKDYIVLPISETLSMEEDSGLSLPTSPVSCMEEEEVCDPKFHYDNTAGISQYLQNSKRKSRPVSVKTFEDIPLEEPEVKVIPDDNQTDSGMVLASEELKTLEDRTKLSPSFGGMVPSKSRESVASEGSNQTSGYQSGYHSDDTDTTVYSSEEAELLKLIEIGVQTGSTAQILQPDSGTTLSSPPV
T3 sequence (P09619 33-1106): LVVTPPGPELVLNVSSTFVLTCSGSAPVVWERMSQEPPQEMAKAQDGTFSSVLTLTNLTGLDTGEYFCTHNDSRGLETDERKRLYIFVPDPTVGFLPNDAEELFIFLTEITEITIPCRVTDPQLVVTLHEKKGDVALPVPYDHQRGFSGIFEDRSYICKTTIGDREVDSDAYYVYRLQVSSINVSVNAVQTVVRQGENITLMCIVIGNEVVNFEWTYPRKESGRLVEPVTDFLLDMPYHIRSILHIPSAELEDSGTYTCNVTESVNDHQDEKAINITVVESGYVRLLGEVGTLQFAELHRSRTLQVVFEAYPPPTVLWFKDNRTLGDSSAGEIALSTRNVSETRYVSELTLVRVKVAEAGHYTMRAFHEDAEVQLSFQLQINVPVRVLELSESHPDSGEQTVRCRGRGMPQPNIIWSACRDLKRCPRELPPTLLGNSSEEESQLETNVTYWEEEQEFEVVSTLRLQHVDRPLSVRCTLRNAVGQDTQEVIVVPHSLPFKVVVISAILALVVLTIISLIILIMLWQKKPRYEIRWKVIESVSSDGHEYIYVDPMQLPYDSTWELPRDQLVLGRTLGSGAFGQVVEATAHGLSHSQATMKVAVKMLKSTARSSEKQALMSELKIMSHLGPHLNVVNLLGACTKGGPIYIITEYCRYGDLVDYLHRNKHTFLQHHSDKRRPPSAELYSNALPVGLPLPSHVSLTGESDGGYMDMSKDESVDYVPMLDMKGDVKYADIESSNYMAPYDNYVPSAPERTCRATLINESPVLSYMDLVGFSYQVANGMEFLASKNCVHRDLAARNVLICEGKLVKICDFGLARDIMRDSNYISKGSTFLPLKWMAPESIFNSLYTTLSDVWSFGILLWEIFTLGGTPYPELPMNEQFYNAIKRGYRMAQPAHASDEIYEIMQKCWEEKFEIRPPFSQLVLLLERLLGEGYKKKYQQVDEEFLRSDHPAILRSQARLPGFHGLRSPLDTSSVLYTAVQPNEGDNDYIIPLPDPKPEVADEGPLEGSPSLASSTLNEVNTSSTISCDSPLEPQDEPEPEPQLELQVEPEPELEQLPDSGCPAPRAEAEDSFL

B1: unlabeled VEGF165a homodimer purified in the same manner (with CDN N-terminal appendage) (ligand)
chain: CDNAPMAEGGGQNHHEVVKFMDVYQRSYCHPIETLVDIFQEYPDEIEYIFKPSCVPLMRCGGCCNDEGLECVPTEESNITMQIMRIKPHQGQHIGEMSFLQHNKCECRPKKDRARQENPCGPCSERRKHLFVQDPQTCKCSCKNTDSRCKARQLELNERTCRCDKPRR
modifications: disulfide-linked homodimer; unlabeled; mature VEGF165 limits by convention (191-aa AUG-initiated isoform precursor, signal 1-26)
B1 displayed an inhibition constant Ki in assay [1] of 0.047 nM. This molecule also registered an IC50 in assay [2] of 0.12 nM.

B2: CBT-labeled VEGF165a homodimer (vascular endothelial growth factor isoform VEGF165a labeled with DY605-PEG-CBT on the N-terminal cysteine) (ligand)
chain: CDNAPMAEGGGQNHHEVVKFMDVYQRSYCHPIETLVDIFQEYPDEIEYIFKPSCVPLMRCGGCCNDEGLECVPTEESNITMQIMRIKPHQGQHIGEMSFLQHNKCECRPKKDRARQENPCGPCSERRKHLFVQDPQTCKCSCKNTDSRCKARQLELNERTCRCDKPRR
modifications: DY605-PEG-CBT on the N-terminal cysteine (>=95% efficiency)
As for B2, the Kd in assay [3] turned out to be 0.049 nM.

B3: CBT-labeled EGF (epidermal growth factor labeled with DY605-PEG-CBT on the N-terminal cysteine) (ligand)
chain: CDNNSDSECPLSHDGYCLHDGVCMYIEALDKYACNCVVGYIGERCQYRDLKWWELR
modifications: DY605-PEG-CBT on the N-terminal cysteine (>=95% efficiency)
On to B3, for which, in assay [4], the midpoint of the response, the EC50, lay at 0.13 nM. This molecule also registered an equilibrium dissociation constant (Kd) in [5] of 0.16 nM.

B4: EGF labeled with 2-fold molar excess of DY605-NHS-ester (ligand)
chain: CDNNSDSECPLSHDGYCLHDGVCMYIEALDKYACNCVVGYIGERCQYRDLKWWELR
modifications: DY605-NHS-ester on multiple lysines and on the N-terminus, heterogeneous (0-2 fluorophores per protein)
As for B4, a half-maximal effect in assay [4] (EC50) was put at 0.16 nM.

B5: unlabeled EGF purified in the same manner (with CDN N-terminal appendage) (ligand)
chain: CDNNSDSECPLSHDGYCLHDGVCMYIEALDKYACNCVVGYIGERCQYRDLKWWELR
modifications: not fully specified
B5 returned a Ki in [6] of 0.15 nM. The IC50 in assay [7] was 0.35 nM.

B6: EGF labeled with 5-fold molar excess of DY605-NHS-ester (ligand)
chain: CDNNSDSECPLSHDGYCLHDGVCMYIEALDKYACNCVVGYIGERCQYRDLKWWELR
modifications: DY605-NHS-ester on multiple lysines and on the N-terminus, heterogeneous (0-2 fluorophores per protein)
B6 displayed an EC50 in [4] of 0.25 nM.

B7: CBT-labeled PDGF-BB homodimer (platelet-derived growth factor labeled with DY605-PEG-CBT on the N-terminal cysteine) (ligand)
chain: CDNSLGSLTIAEPAMIAECKTRTEVFEISRRLIDRTNANFLVWPPCVEVQRCSGCCNNRNVQCRPTQVQLRPVQVRKIEIVRKKPIFKKATVTLEDHLACKCETVAAARPVT
modifications: DY605-PEG-CBT on the N-terminal cysteine (>=95% efficiency)
The molecule B7 came in with an EC50 in assay [8] of 0.068 nM. Moreover, in assay [9], the Kd came to 0.062 nM.

B8: unlabeled PDGF-BB homodimer purified in the same manner (with CDN N-terminal appendage) (ligand)
chain: CDNSLGSLTIAEPAMIAECKTRTEVFEISRRLIDRTNANFLVWPPCVEVQRCSGCCNNRNVQCRPTQVQLRPVQVRKIEIVRKKPIFKKATVTLEDHLACKCETVAAARPVT
As to B8, in assay [10], the IC50 amounted to 0.11 nM. Further, in [11], the affinity corresponds to a Ki of 0.044 nM.
